Data as given in publication PMC3748026, “The Mini-Chromosome Maintenance (Mcm) Complexes Interact with DNA Polymerase α-Primase and Stimulate Its Ability to Synthesize RNA Primers” (PLoS ONE, 2013).
Blank lines part the entries; values can stand above or below the binder they belong to.

Key:
[1] = target: the molecule itself; assay: native gel or EMSA; proteins alone or mixed, 25 mM Tris-HCl pH 7.5, 5 mM magnesium acetate, 20 mM 2-mercaptoethanol, 0.01% Triton X-100, 1 mM ATP, 30°C 15 min; 5% native PAGE at 4°C, silver staining; no DNA
[2] = target: T1, mouse Mcm2∼7 complex (Mcm2/3/4/5/6/7), Flag tag on Mcm5 (mouse, UniProt P97310 1-904; P25206 1-812; P49717 1-862; P49718 1-734; P97311 1-821; Q61881 …); assay: cell-based or functional assay
[3] = target: mouse Mcm4/6/7 complex (His6-Mcm4, Mcm6, Mcm7-Flag) (mouse, UniProt P49717 1-862; P97311 1-821; Q61881 1-719); assay: cell-based or functional assay
[4] = target: T1, mouse Mcm2∼7 complex (Mcm2/3/4/5/6/7), …; assay: co-IP; purified Mcm2∼7 (Flag tag on Mcm5) held on anti-Flag M2 antibody agarose beads, mixed with purified primase, His-p48 or GINS, with or without an oligonucleotide, GINS or DNase I; 50 mM Tris-HCl pH 7.5, 100 mM sodium acetate, 5 mM magnesium acetate, 1 mM ATP, 10% glycerol, 0.01% Triton X-100; 2 h at 4°C; eluted with 0.1 M glycine pH 2.8 or boiled; silver or SYPRO staining and Western blotting; details: both partners purified
[5] = target: Mcm4/6/7 complex;DNA primase p48/p58 (mouse;human, UniProt P49717;P97311;Q61881;P49642;P49643 1-862;1-821;1-719;1-420;1-509, |); assay: EMSA; 0.5 mM ATPgS; 2.3 nM Mcm4/6/7, 25-100 nM primase; slower band, proportional to primase; EMSA: 25 mM Tris-HCl pH 7.5, 40 mM Na acetate, 10 mM Mg acetate, 20 mM 2-mercaptoethanol, 0.25 mg/ml BSA, 0.5 mM ATPgS, 30 C 30 min; pull-down: 25 mM Tris-HCl pH 7.5, 100 mM Na acetate, 10 mM Mg acetate, 0.25 mg/ml casein, 1 mM DTT, 0.01% Triton-X, 0.5 mM ATPgS or 1 mM ATP, 30 C 30 min then beads 4 C 30 min; details: protein: recombinant;recombinant; tags: His6-Mcm4; Mcm7-Flag;His6 on p58; p48 untagged; chain copies: 2;2;2;1;1; label: 5'-32P; single strand
Mcm4/6/7 complex = Mcm4/6/7 complex (mouse, UniProt P49717;P97311;Q61881 1-862;1-821;1-719); assay: EMSA; 0.5 mM ATPgS; 2.3 nM Mcm4/6/7; EMSA: 25 mM Tris-HCl pH 7.5, 40 mM Na acetate, 10 mM Mg acetate, 20 mM 2-mercaptoethanol, 0.25 mg/ml BSA, 0.5 mM ATPgS, 30 C 30 min; pull-down: 25 mM Tris-HCl pH 7.5, 100 mM Na acetate, 10 mM Mg acetate, 0.25 mg/ml casein, 1 mM DTT, 0.01% Triton-X, 0.5 mM ATPgS or 1 mM ATP, 30 C 30 min then beads 4 C 30 min; details: protein: recombinant; tags: His6-Mcm4; Mcm7-Flag; chain copies: 2;2;2; label: 5'-32P; single strand
DNA primase p48/p58 = target: T2, DNA primase p48/p58 (human, UniProt P49642;P49643 1-420;1-509); assay: EMSA; 0.5 mM ATPgS; EMSA: 25 mM Tris-HCl pH 7.5, 40 mM Na acetate, 10 mM Mg acetate, 20 mM 2-mercaptoethanol, 0.25 mg/ml BSA, 0.5 mM ATPgS, 30 C 30 min; pull-down: 25 mM Tris-HCl pH 7.5, 100 mM Na acetate, 10 mM Mg acetate, 0.25 mg/ml casein, 1 mM DTT, 0.01% Triton-X, 0.5 mM ATPgS or 1 mM ATP, 30 C 30 min then beads 4 C 30 min; details: protein: recombinant; tags: His6 on p58; p48 untagged; copies: 1;1; label: 5'-32P; single strand
T2 sequence 1: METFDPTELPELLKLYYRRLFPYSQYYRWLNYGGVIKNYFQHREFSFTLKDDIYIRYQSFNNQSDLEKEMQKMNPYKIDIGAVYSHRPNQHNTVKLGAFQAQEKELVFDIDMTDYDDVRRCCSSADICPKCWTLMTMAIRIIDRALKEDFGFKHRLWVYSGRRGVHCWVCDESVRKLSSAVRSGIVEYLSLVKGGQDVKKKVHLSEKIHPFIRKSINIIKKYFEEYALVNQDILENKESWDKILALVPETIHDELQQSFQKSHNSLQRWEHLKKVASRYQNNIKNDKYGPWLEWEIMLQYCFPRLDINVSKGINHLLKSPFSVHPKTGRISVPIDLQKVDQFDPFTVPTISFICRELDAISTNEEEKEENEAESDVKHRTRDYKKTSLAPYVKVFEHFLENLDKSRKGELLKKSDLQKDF
T2 sequence 2: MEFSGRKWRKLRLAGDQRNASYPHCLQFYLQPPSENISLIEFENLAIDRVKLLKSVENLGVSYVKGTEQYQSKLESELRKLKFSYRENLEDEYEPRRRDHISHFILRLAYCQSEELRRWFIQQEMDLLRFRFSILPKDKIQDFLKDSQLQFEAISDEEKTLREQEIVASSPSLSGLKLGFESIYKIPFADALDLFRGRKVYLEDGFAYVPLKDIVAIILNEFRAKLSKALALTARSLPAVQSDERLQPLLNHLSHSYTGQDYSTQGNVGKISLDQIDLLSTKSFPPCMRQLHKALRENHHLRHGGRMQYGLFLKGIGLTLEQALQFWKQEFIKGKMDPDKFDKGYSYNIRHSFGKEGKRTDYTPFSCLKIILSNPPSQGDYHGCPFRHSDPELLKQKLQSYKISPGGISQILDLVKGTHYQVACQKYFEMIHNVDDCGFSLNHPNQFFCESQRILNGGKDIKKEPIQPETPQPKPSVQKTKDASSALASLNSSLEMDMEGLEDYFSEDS

mouse Mcm4/6/7 complex (His6-Mcm4, Mcm6, Mcm7-Flag), sequence (P49717 whole entry, chain 1 of 3): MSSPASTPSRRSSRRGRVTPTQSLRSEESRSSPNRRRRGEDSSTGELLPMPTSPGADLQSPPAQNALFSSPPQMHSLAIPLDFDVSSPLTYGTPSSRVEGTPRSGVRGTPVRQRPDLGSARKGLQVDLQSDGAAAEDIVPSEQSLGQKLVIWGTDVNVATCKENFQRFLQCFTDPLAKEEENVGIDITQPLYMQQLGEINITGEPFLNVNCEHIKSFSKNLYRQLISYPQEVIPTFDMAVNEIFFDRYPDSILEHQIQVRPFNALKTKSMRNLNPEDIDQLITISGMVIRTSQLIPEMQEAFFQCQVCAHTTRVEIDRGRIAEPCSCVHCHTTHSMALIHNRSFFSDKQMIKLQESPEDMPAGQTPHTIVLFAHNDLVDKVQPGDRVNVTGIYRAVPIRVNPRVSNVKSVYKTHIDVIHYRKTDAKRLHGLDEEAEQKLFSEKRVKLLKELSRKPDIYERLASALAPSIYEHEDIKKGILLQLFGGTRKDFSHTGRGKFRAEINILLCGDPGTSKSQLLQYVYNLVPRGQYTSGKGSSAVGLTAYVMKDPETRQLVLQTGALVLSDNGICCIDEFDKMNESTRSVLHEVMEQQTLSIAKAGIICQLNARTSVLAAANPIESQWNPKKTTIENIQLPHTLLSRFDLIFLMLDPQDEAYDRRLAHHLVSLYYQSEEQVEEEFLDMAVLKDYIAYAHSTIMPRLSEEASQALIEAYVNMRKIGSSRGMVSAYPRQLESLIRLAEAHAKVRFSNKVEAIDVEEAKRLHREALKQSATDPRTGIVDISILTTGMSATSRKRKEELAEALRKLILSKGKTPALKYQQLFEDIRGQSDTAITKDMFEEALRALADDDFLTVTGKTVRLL
mouse Mcm4/6/7 complex (His6-Mcm4, Mcm6, Mcm7-Flag), sequence (P97311 whole entry, chain 2 of 3): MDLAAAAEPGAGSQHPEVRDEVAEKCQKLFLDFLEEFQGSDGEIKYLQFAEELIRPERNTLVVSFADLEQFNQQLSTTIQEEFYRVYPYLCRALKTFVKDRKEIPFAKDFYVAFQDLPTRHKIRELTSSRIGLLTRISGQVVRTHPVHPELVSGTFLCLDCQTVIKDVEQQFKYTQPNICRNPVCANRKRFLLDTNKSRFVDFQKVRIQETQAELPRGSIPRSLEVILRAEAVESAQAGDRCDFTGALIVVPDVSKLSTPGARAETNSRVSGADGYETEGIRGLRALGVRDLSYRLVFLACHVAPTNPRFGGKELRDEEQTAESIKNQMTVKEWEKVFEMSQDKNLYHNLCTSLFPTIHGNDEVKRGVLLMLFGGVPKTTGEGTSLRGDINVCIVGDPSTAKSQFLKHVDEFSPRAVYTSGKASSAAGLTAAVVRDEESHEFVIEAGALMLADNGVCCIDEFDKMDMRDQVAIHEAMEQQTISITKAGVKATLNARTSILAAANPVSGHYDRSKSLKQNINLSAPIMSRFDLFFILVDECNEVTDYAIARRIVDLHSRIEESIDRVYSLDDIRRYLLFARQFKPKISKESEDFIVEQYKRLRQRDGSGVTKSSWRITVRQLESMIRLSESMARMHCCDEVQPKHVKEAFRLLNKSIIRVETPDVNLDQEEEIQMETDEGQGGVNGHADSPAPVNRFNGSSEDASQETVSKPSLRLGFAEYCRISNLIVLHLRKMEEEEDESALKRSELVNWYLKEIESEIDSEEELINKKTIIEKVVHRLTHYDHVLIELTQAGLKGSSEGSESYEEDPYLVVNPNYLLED
mouse Mcm4/6/7 complex (His6-Mcm4, Mcm6, Mcm7-Flag), sequence (Q61881 whole entry, chain 3 of 3): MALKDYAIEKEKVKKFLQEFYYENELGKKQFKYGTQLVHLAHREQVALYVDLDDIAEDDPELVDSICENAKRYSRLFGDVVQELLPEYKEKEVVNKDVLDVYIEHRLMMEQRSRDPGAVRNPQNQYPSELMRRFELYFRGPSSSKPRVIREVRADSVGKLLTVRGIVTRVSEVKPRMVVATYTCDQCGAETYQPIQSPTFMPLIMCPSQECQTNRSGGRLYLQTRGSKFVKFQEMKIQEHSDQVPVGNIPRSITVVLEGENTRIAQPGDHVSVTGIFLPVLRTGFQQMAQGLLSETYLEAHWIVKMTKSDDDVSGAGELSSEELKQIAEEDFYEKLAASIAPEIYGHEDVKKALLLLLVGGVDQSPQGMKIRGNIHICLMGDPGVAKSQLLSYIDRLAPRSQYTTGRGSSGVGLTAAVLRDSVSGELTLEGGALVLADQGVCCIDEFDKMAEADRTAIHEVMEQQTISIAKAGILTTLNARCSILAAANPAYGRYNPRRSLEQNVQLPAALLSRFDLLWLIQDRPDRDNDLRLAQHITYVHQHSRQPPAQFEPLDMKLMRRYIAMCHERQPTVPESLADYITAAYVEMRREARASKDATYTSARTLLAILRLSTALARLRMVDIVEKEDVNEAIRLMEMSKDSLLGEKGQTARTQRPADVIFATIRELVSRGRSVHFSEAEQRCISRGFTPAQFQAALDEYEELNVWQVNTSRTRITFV
Mcm4/6/7 complex;DNA primase p48/p58, sequence (P49717 whole entry, chain 1 of 3): as the sequence (P49717 whole entry, chain 1 of 3) above
Mcm4/6/7 complex;DNA primase p48/p58, sequence (P97311 whole entry, chain 2 of 3): as the sequence (P97311 whole entry, chain 2 of 3) above
Mcm4/6/7 complex;DNA primase p48/p58, sequence (Q61881 whole entry, chain 3 of 3): as the sequence (Q61881 whole entry, chain 3 of 3) above
Mcm4/6/7 complex, sequence (P49717 whole entry, chain 1 of 3): as the sequence (P49717 whole entry, chain 1 of 3) above
Mcm4/6/7 complex, sequence (P97311 whole entry, chain 2 of 3): as the sequence (P97311 whole entry, chain 2 of 3) above
Mcm4/6/7 complex, sequence (Q61881 whole entry, chain 3 of 3): as the sequence (Q61881 whole entry, chain 3 of 3) above

RNA primer synthesis by p48/p58 primase on poly(dT) with 100-400 ng of Mcm2∼7 [2]: ~3 fold
RNA primer synthesis by p48/p58 primase on M13 ssDNA with 100-600 ng of Mcm4/6/7 [3]: 4 to 7 fold
RNA primer synthesis by p48/p58 primase on poly(dT) with 100-600 ng of Mcm4/6/7 [3]: ~3 fold
B1: human DNA primase p48/p58 hetero-dimeric complex (His-tagged p58, non-tagged p48) (complex)
chain 1: T2 sequence 1
chain 2: T2 sequence 2
notes: DNA primase small subunit p48, human; DNA primase large subunit p58, human; End of the His tag is read from the printed name His-p58; also called His-p58/p48 complex; His-tagged p48/p58 complex; source: E. coli BL21 (DE3) RIL, purified as previously described [58]; not shown: His tag, N-terminal, kept
binding result [1]: binds

binding result [4]: binds
B2: His-tagged p48 alone (human DNA primase p48 single subunit) (natural protein, UniProt P49642 1-420, looked up)
chain: T2 sequence 1
notes: DNA primase small subunit p48, human; End of the His tag is read from the printed name His-p48; also called His-p48; source: E. coli BL21 (DE3) RIL, purified as previously described [58]; not shown: His tag, N-terminal, kept

B3: 132-mer pyrimidine-rich oligonucleotide (ssDNA)
DNA: CCACACATGATTTGTTTGCTCCCTGAAATGATCTATATTTAATATATAATGTATATTCCCTCGGGATTTTTTATTTTGTGTTATTCCACGGCATGAAAAACAAAAAACATTCTTCTCATCCTTGGTCCCTCA
binding result [5]: binds
binding result (Mcm4/6/7 complex): binds
binding result (DNA primase p48/p58): binds
